Measured values reported in PMC12358912.

Experiments:
NIPBL (human) = NIPBL (human) (UniProt Q6KC79); assay: mass photometry; conditions: typically 150 nM protein + 150 nM DNA, then diluted (10-fold for NIPBL), phosphate buffer (HEPES for MC604 repeat), 50 mM NaCl for ATP …
NIPBL-MAU2 (human) = NIPBL-MAU2 (human) (UniProt Q6KC79+Q9Y6X3); assay: mass photometry; conditions: typically 150 nM protein + 150 nM DNA, then diluted (10-fold for NIPBL), phosphate buffer (HEPES for MC604 repeat), 50 mM NaCl for ATP …
Sequence of NIPBL-MAU2 (human) (Q6KC79 whole entry, chain 1 of 2): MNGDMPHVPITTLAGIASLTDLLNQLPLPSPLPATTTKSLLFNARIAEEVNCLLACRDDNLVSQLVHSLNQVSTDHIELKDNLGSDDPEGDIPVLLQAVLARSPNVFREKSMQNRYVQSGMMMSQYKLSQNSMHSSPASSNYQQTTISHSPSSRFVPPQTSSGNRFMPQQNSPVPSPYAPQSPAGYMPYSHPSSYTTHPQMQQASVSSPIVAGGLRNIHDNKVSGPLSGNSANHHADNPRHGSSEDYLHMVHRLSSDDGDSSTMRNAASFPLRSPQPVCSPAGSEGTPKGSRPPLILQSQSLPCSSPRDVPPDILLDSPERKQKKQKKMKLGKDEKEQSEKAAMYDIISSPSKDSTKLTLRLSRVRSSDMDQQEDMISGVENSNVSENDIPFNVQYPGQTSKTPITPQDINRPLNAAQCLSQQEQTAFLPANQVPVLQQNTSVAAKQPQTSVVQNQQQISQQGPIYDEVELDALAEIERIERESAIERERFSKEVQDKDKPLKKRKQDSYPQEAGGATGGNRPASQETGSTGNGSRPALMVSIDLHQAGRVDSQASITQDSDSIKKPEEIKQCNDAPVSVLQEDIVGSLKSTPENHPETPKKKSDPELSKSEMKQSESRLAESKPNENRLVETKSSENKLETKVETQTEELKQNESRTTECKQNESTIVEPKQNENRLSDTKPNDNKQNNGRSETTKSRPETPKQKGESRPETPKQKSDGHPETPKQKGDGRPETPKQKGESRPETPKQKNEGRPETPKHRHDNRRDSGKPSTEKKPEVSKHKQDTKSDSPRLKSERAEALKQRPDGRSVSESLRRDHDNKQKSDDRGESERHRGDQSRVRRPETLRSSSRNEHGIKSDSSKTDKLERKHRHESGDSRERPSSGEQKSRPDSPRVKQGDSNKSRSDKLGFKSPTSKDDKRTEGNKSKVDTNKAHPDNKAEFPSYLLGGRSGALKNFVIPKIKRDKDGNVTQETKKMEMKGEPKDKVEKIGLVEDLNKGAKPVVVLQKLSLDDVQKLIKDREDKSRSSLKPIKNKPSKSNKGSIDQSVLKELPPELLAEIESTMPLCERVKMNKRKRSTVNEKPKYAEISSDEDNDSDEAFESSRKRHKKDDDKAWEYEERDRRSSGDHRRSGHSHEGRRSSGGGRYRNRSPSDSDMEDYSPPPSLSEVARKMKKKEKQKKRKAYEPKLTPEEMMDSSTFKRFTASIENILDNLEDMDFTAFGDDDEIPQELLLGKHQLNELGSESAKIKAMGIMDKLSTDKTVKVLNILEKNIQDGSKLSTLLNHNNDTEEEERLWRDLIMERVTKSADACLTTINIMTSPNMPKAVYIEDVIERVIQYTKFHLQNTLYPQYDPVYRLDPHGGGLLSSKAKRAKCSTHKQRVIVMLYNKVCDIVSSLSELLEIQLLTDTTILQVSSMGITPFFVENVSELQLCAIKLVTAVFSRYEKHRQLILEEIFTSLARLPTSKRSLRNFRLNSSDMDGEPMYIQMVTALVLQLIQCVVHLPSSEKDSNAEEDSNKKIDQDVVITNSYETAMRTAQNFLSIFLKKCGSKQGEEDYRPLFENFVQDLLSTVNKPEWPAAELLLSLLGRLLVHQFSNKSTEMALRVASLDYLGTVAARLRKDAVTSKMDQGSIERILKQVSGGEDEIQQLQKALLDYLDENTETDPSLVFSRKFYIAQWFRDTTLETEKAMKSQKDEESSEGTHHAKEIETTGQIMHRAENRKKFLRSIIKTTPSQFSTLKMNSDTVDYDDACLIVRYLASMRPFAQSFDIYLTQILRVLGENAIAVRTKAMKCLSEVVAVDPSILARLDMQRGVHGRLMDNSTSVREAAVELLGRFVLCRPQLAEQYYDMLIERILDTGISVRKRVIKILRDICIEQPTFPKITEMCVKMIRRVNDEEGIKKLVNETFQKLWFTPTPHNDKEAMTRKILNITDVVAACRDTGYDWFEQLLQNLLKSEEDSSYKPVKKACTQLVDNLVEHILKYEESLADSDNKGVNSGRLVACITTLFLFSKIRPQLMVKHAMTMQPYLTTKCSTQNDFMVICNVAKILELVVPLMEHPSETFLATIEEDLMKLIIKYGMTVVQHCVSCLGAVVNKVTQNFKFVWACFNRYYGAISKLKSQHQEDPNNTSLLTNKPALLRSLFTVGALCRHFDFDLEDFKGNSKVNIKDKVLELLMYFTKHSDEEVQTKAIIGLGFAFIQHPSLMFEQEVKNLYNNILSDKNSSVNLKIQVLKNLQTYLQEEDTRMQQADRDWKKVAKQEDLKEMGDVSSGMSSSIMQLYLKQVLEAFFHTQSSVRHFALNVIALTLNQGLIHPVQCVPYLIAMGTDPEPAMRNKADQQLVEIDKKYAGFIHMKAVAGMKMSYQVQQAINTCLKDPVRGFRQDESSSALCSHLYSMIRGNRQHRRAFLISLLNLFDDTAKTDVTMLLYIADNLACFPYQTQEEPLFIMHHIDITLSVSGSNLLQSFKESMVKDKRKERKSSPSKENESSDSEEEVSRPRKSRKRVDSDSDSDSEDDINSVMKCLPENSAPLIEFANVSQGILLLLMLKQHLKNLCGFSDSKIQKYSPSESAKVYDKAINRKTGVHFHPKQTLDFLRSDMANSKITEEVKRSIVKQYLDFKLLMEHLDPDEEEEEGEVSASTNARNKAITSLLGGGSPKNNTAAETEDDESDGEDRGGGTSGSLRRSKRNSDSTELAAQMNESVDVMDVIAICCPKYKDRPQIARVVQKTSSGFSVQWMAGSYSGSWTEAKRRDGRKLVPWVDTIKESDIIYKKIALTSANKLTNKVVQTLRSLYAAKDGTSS
Sequence of NIPBL-MAU2 (human) (Q9Y6X3 whole entry, chain 2 of 2): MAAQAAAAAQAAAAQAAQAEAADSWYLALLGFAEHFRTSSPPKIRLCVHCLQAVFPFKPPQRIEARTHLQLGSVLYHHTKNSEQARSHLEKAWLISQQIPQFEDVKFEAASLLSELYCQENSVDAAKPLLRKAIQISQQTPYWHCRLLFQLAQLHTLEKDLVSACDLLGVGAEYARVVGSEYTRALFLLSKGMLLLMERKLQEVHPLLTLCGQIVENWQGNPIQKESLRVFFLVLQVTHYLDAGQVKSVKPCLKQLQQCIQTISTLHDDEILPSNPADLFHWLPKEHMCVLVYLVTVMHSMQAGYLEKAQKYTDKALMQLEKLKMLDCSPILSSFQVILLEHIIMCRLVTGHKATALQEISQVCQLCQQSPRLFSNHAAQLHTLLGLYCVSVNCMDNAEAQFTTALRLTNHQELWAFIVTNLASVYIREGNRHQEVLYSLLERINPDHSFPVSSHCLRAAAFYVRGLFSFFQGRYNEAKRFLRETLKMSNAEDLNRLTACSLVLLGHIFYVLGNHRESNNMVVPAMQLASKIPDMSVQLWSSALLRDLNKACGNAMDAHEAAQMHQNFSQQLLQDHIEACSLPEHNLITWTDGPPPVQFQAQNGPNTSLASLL

STAG1 (human) = target: T1, STAG1 (human) (UniProt Q8WVM7); assay: mass photometry; conditions: typically 150 nM protein + 150 nM DNA, then diluted (10-fold for NIPBL), phosphate buffer (HEPES for MC604 repeat), 50 mM NaCl for ATP …
T1 sequence: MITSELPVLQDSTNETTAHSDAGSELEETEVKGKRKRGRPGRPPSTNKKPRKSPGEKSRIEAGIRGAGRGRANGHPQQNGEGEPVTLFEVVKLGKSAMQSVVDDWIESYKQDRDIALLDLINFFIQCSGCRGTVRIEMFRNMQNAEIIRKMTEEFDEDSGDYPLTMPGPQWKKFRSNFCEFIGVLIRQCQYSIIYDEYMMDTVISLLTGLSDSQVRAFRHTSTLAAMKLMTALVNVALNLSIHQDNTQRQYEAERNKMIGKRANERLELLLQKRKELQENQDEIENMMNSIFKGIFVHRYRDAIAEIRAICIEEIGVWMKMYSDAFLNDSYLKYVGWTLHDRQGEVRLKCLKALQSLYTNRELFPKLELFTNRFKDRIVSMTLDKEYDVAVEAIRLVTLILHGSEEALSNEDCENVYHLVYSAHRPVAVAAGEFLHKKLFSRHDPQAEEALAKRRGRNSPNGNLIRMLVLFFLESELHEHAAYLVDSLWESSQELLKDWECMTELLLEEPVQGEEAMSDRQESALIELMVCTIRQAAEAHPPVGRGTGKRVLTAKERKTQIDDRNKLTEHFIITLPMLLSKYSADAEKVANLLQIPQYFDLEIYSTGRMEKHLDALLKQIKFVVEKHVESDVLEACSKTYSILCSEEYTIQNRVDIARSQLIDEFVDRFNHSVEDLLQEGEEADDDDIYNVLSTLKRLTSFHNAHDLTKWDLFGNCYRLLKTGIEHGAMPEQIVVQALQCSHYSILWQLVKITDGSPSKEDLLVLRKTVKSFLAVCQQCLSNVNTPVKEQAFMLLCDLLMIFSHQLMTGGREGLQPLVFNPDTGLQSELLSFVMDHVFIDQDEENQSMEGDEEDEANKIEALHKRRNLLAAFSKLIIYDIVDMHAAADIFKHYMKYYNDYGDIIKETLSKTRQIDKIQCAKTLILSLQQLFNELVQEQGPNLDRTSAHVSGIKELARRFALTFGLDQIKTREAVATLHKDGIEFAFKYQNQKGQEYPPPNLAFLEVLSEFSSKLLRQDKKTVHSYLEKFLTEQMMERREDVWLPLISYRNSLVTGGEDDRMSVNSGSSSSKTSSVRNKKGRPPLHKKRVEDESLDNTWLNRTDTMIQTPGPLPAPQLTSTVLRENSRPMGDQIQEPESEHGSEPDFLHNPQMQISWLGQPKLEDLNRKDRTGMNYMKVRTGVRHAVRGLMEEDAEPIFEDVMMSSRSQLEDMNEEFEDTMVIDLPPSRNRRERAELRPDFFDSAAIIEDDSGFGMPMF

[1] = target: cohesin Trimer (SMC1/SMC3/SCC1);STAG1 (human;human) (UniProt Q14683+Q9UQE7+O60216+Q8WVM7); assay: mass photometry; conditions: typically 150 nM protein + 150 nM DNA, then diluted (10-fold for NIPBL), phosphate buffer (HEPES for MC604 repeat), 50 mM NaCl for ATP …
[2] = target: SMC1/SMC3/SCC1 cohesin Trimer (UniProt Q14683); assay: mass photometry; in solution; two components mixed and equilibrated: 150 nM cohesin Trimer sample with 150 nM NIPBL, or with 150 nM or 80 nM STAG1 (total protein concentrations); KD from individual mass distributions; ATP is said not to affect these 1:1 interactions

Sequence of NIPBL (human) (Q6KC79 whole entry): as the sequence (Q6KC79 whole entry, chain 1 of 2) above

Row | Kd [2] | Substance | Kd (NIPBL (human)) | Kd (NIPBL-MAU2 (human)) | Kd (STAG1 (human)) | Kd [1]
1 |  | CATATGTGCAGTCCCCCCATAAAAAAACCCGCCGAAGCGGGTTTTTACGTTATTTGCGGATTTTAATTAACTAGTTCTAGAGCTCACGTGCAGCTGTCGACGGTACCTGCAGGCCGGCCAGTACTGGGCCCCAACAGATAAAACGAAAGGCCCAGTCTTTCGACTGAGCCTTTCGTTTTATTGGGCCCCCTTGGTCAAATTGGGTATACCCATTTGGGCCTGGTCTGGCCGGCATGGCGCATTACAGCGGTACGCAATTTAAATGCGCCTAGCGCATTTTCCCGACCTTAATGCGCCTCGCG (double strand) [MC302 supercoiled minicircle] | < 10 nM | 12.2 nM | 1350 nM | 169 nM
2 | 20 nM | NIPBL, Q6KC79 1-2804 |  |  |  | 
